In patent US20250177531A1 (FRED HUTCHINSON CANCER CENTER, published 2025):

Legend:
[1] = biological target: KRAS G12V 7-16 10mer peptide … presented by HLA-A*11:01 (human); experiment: cell-based or functional assay
[2] = biological target: KRAS G12V 8-16 9mer peptide … presented by HLA-A*11:01 (human); experiment: cell-based or functional assay
[3] = biological target: RAB7B peptide … presented by HLA-A*11:01 (human); experiment: cell-based or functional assay
[4] = biological target: T1, KRAS G12V (same sequence in NRAS G12V and HRAS G12V) peptide on HLA-A*11:01 (human); experiment: stated without data
T1 peptide: VVGAVGVGK

B1: TCR 11N4A (TCR)
TCR alpha: QQKNDDQQVKQNSPSLSVQEGRISILNCDYTNSMFDYFLWYKKYPAEGPTFLISISSIKDKNEDGRFTVFLNKSAKHLSLHIVPSQPGDSAVYFCAASGVSGNTPLVFGKGTRLSVIANIQNPDPAVYQLRDSKSSDKSVCLFTDFDSQTNVSQSKDSDVYITDKCVLDMRSMDFKSNSAVAWSNKSDFACANAFNNSIIPEDTFFPSPESSCDVKLVEKSFETDTNLNFQNLSVIGFRILLLKVAGFNLLMTLRLWSS
TCR beta: GVTQTPRYLIKTRGQQVTLSCSPISGHRSVSWYQQTPGQGLQFLFEYFSETQRNKGNFPGRFSGRQFSNSRSEMNVSTLELGDSALYLCASSVGTVEQYFGPGTRLTVTEDLKNVFPPEVAVFEPSEAEISHTQKATLVCLATGFYPDHVELSWWVNGKEVHSGVCTDPQPLKEQPALNDSRYCLSSRLRVSATFWQNPRNHFRCQVQFYGLSENDEWTQDRAKPVTQIVSAEAWGRADCGFTSESYQQGVLSATILYEILLGKATLYAVLVSALVLMAMVKRKDSRG
[1]
  EC50, CD137 surface expression assay (functional avidity), TCR 11N4A in primary human CD8+ T cells: 18.8 nM
[2]
  EC50, CD137 surface expression assay (functional avidity), TCR 11N4A in primary human CD8+ T cells: 0.0595 nM
  percent of T cells responding (CD137), peptide titration: > 80%

B2: TCR 11N4A (TCR, V domains shown)
V domain 1: DQQVKQNSPSLSVQEGRISILNCDYTNSMFDYFLWYKKYPAEGPTFLISISSIKDKNEDGRFTVFLNKSAKHLSLHIVPSQPGDSAVYFCAASGVSGNTPLVFGKGTRLSVIA
V domain 2: GVTQTPRYLIKTRGQQVTLSCSPISGHRSVSWYQQTPGQGLQFLFEYFSETQRNKGNFPGRFSGRQFSNSRSEMNVSTLELGDSALYLCASSVGTVEQYFGPGTRLTVTE
[3]
  EC50, CD137 expression, sort-purified TCR 11N4A-transduced T cells, peptide titration: ~35 mg/L

B3: TCR 11N6 (TCR, V domains shown)
Valpha: QQGEEDPQALSIQEGENATMNCSYKTSINNLQWYRQNSGRGLVHLILIRSNEREKHSGRLRVTLDTSKKSSSLLITASRAADTASYFCATDPMNTNAGKSTFGDGTTLTVKP
Vbeta: GVAQSPRYKIIEKRQSVAFWCNPISGHATLYWYQQILGQGPKLLIQFQNNGVVDDSQLPKDRFSAERLKGVDSTLKIQPAKLEDSAVYLCASSPYGGSVSYEQYFGPGTRLTVT
[4]
  binding result: recognises
